Test results reported in US20250360220A1, “REGULATION OF TAU USING PROTEIN-LIKE POLYMERS AND USES THEREOF” (NORTHWESTERN UNIVERSITY, priority 2022, published 2025).

Experiments:
K18 Tau = molecular target: T1, K18 Tau (Homo sapiens, UniProt P10636); experiment: Tau Kinetics Thioflavin T plate reader assay; assay type: biochemical; conditions: for PLP or Pep/Tau %: Avg P amplitude divided by Avg Tau amplitude x 100; for PLP or Pep 10 hr (average amplitude, fluorescent intensity readout, of the Tau trace treated with that compound) / PLP or Pep 15 hr (average amplitude) / PLP or Pep 20 hr (average amplitude): K18 Tau 10 μM, heparin, thioflavin T, PBS; for Avg P Amplitude: average of the amplitudes at 10, 15 and 20 hr; for % amp change: change in amplitude relative to control Tau
T1 construct: K18 Tau was first expressed, collected, and purified; His tag (cleaved yes); made in house
Description: (§1) Tau Kinetics Thioflavin T Plate Reader Assay Protocol: First, controls and the effects of varying concentrations of K18 Tau were examined (FIG. 24). In FIG. 24, 1X Tau refers to 10 μM K18 Tau final concentration in the well with 100 μl total volume (i.e., 0.5× Tau refers to 5 μM K18 Tau and 2× Tau refers to 20 μM K18 Tau). Before PLPs were added to K18 Tau, the concentration at which the mimetic aggregative polymers would not activate Thioflavin T was evaluated. Based on the results depicted in FIG. 25, a PLP concentration of 1 μM was selected for further experimentations. […] Given the goal to investigate effects of the PLPs, it was determined that too high of a concentration could easily be adjusted, whereas too low of a concentration could result in a false negative with respect to impact.
PLPs incorporating SEQ ID: 4 (“TP4”), SEQ ID: 2 (“TP7”), or SEQ ID: 10 (“TP12”) as peptide sidechains were tested. The PLPs, K18 Tau (10 μM) and Thio T (Sigma) at a final concentration of 10 μM was added, and aggregation was induced by the addition of a freshly prepared heparin sodium salt solution (Santa Cruz) at a final concentration of 44 μg/ml. For non-induced controls, assay buffer was added in place of heparin solution to a final volume of 100 μl per well. Aggregation reactions were carried out at 37° C. with continuous shaking and monitored via ThT fluorescence (excitation, 444 nm; emission, 485 nm; cutoff, 480 nm) in a Spectramax M5 microplate reader (Molecular Devices). Readings were taken every 5 min for a minimum of 24 h.
Table C. Summary of results depicted in FIGS. 26, 28, and 29 in the event the graphical representations are difficult to ascertain. Values are rounded to the nearest whole number. Tau 10 hr refers to the average amplitude (fluorescent intensity readout) of an n=6 of the control Tau (meaning no peptide or polymer added, just heparin, thioflavin T, and PBS) trace at 10 hour. The same applies to Tau 15 hr and Tau 20 hr. Avg Tau amplitude refers to the average of the amplitudes at 10, 15, and 20 hr in the previous columns. As Tau is the control for each individual plate, and these readings were done on three separate plates, there are 3 different sets of average amplitudes. Similar to the aforementioned, PLP or Pep 10 hr refers to the average amplitude (n=6 for PLP and n=3 for peptide) of the Tau trace treated with that compound at 10 hours. Avg P amplitude refers to the average of the amplitude at the 3 times, or the average of the 3 previous columns. PLP or Pep/Tau % is the result of dividing the Avg P amplitude by Avg Tau amplitude and multiplying by 100. % amp change refers to the change in amplitude given by subtracting Tau average amplitude from P average amplitude and dividing by Tau average amplitude and multiplying by 100.

Circular dichroism = assay type: physicochemical; conditions: 37° C.; for CD conformation of PLPs: Tris buffer pH 7.4; for CD conformation of free peptides: before and after addition of heparin
Description: The proteomimetic similarities were further investigated using circular dichroism. Samples tested included K18 Tau, PLPs having SEQ ID: 4, SEQ ID: 2, and SEQ ID: 10, as well as said PLPs with K18 Tau. Each of these samples were dissolved in Tris buffer (10 mM Tris, 50 mM NaF, 0.5 mM dithiothreitol) and pH was adjusted to 7.4. Samples were tested with and without the addition of heparin. For samples containing heparin, samples were incubated in the presence of 10 μM heparin sodium salt for 24 hours. Polymers and peptides were run at 37° C., at a concentration of 3 mg/10 ml and K18 Tau was run at 10 uM. Parameters were: 1 mm quartz cuvette, continuous scan at 10 nm/min over 260 to 200 nm, 3 acquisitions averaged for one trace.

[1] = Concentration dependence of polymer activation of Thioflavin T (no Tau); conditions: 1 μM PLP, no Tau (FIG. 25)
Excerpt: FIG. 25: Concentration dependence of polymer activation of Thioflavin T. TP4: PLP homopolymer incorporating SEQ ID: 4 as peptide sidechains. TP7: PLP homopolymer incorporating SEQ ID: 2 as peptide sidechains. TP4 and TP7 controls: PLP homopolymer, thioflavin T, no heparin, and PBS. The remainder of controls were at baseline and were removed from this FIG. 25 to improve readability. ThioT control: no Tau, no heparin, thioflavin T and PBS. ThioT heparin control: no Tau, no PLPs, thioflavin T, heparin, and PBS. n=3.
as §1

[2] = Liquid-liquid phase separation (LLPS) of rhodamine labeled PLPs; assay type: physicochemical
Description: Solutions were dissolved in HEPES buffer: 10 mM HEPES buffer (pH 7.4) with 0.1 mM EDTA and 2 mM DTT, Media buffer: Dulbecco Modified Eagles Medium (high glucose) with 2 mM L-glutamine with 10% Fetal Bovine Serum, 1% Penicillin/Streptomycin, or water. Different crowding agents were also tested using HEPES buffer—PEG and heparin. For heparin, stock solutions of 10 μM of each rhodamine labeled PLP (using either SEQ ID: 4 or SEQ ID: 7 as peptide monomers) and 30 μM of heparin sodium salt were prepared in buffer and kept refrigerated. Before experiments, solutions were given at least 30 min to come to room temperature and experiments were carried out at room temperature. In the microscope room, 20 μL of PLP was added to 5 μL of heparin and mixed gently in a microcentrifuge tube. 5 μL of solution was immediately pipetted onto Fisherbrand glass microscope slides and coverslip applied. All reactions were visualized on Olympus BX53 Fluorescent Microscope using the 581 nm laser to monitor the rhodamine, as well as brightfield. LLPS occurred within 60 min of initiation.

[3] = STEM / dry state TEM of PLP homopolymers; assay type: physicochemical; conditions: prepared in H2O
Description: Using standard STEM protocols, PLPs having SEQ ID: 2 or SEQ ID: 4 as peptide monomers were prepared in H2O and visualized. […] Further, from the results depicted in FIG. 17, the homopolymer the beta sheet forming nature was confirmed. After putting the PLPs in HEPES LLPS buffer and heating to 37° C. (i.e., body temperature), a time course established the fibrilization of the polymer on dry state TEM. The same fibrilization was seen on purified K18 Tau protein 24 hours after incubation with heparin in PBS as depicted in FIG. 19. The remarkably similar characteristics was a testament to the mimetic capabilities of the PLP.

[4] = system: Mouse striatal cells HdhQ7/7; experiment: Cell permeability assay with rhodamine labeled PLPs (confocal imaging); assay type: cell-based; conditions: incubated with the cells for 24 hours
Description: Mouse striatal cells HdhQ7/7 from Coriell Institute were plated in 4-chamber 35 mm round glass-bottom dishes at a density of 50,000 per well. Cells were incubated for 24 hours in a 5% CO2 atmosphere at 33° C. Rhodamine labeled PLPs, rhodamine dye, and vehicle control in 10% FBS DMEM medium without phenol red were incubated with the cells for 24 hours, respectively. The cell nuclei (stained with Hoechst) were accomplished using a 405 nm laser with a 15% laser power. The cell membrane (stained with Wheat Germ Agglutinin, Alexa Fluor 488 Conjugate) was accomplished using a 488 nm laser with a 12% laser power. Cell imaging for Rhodamine fluorescence was accomplished using a 581 nm laser with an 8% laser power.

[5] = HEPES buffer with heparin, room temperature

T1 sequence (P10636 561-685 limits assumed): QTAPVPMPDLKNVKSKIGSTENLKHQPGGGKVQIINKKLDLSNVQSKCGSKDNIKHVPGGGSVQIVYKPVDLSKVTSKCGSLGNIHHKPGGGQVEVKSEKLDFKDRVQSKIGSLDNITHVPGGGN

Row | Substance | PLP or Pep/Tau % (K18 Tau; 1 μM PLP/Pep) [%] | PLP or Pep 10 hr (average amplitude, fluorescent intensity readout, of the Tau trace treated with that compound) (K18 Tau; 1 μM PLP/Pep) | PLP or Pep 15 hr (average amplitude) (K18 Tau; 1 μM PLP/Pep) | PLP or Pep 20 hr (average amplitude) (K18 Tau; 1 μM PLP/Pep) | Avg P Amplitude (K18 Tau; 1 μM PLP/Pep) | % amp change (K18 Tau; 1 μM PLP/Pep) [%] | PLP or Pep/Tau % (K18 Tau; 10 μM PLP/Pep) [%] | PLP or Pep 10 hr (average amplitude, fluorescent intensity readout, of the Tau trace treated with that compound) (K18 Tau; 10 μM PLP/Pep) | PLP or Pep 15 hr (average amplitude) (K18 Tau; 10 μM PLP/Pep) | PLP or Pep 20 hr (average amplitude) (K18 Tau; 10 μM PLP/Pep) | Avg P Amplitude (K18 Tau; 10 μM PLP/Pep) | % amp change (K18 Tau; 10 μM PLP/Pep) [%] | CD conformation of PLPs (Circular dichroism; after addition of heparin) | CD conformation of PLPs (Circular dichroism; before heparin was added) | CD conformation of free peptides (Circular dichroism) | Thioflavin T signal of the polymer [1] | Liquid-liquid phase separation [2, 5] | Conformation by STEM [3] | Capability to permeate the striatal cells [4] | other results
1 | TP12: PLP generated from peptide monomers characterized by SEQ ID: 10 (VQPINK) | 34 | 116 | 129 | 143 | 129 | −69 | 9 | 36 | 37 | 36 | 36 | −91 | beta sheet formation | random coil formations |  |  |  |  |  | Effect of inhibitor polymer on fibril formation of K18 Tau (K18 Tau; two concentrations, 1 μM and 10 μM, with heparin (FIG. 29)): significantly prevented fibril formation of K18 Tau
2 | VQIINKRR [P4] | 177 | 588 | 558 | 657 | 601 | 46 | 129 | 417 | 497 | 395 | 436 | 6 |  |  | beta sheet formation |  |  |  |  | 
3 | TP4: PLP generated from peptide monomers characterized by SEQ ID: 4 (VQIINKRR) | 143 | 730 | 936 | 961 | 876 | 44 |  |  |  |  |  |  | beta sheet formation | random coil formations |  | significant signal | capable of liquid-liquid phase separation | beta sheet conformations | demonstrated the capability to permeate the striatal cells | Liquid-liquid phase separation ([2]; HEPES buffer with PEG as crowding agent): induce LLPS phase condensates
4 | DRVQIVYKRR [P7] | 135 | 417 | 411 | 545 | 458 | 11 | 126 | 395 | 448 | 438 | 427 | 4 |  |  | beta sheet formation |  |  |  |  | 
5 | TP7: PLP generated from peptide monomers characterized by SEQ ID: 2 (DRVQIVYKRR) | 110 | 633 | 715 | 672 | 673 | 11 |  |  |  |  |  |  | beta sheet formation | random coil formations |  | negligible signal | capable of liquid-liquid phase separation | beta sheet conformations | demonstrated the capability to permeate the striatal cells | 
6 | VQPINK [P12] | 182 | 605 | 555 | 693 | 618 | 50 | 140 | 584 | 413 | 424 | 474 | 15 |  |  | beta sheet formation |  |  |  |  | 
